Source: paper PMC4264199, “Peptide Array on Cellulose Support—A Screening Tool to Identify Peptides with Dipeptidyl-Peptidase IV Inhibitory Activity within the Sequence of α-Lactalbumin” (International Journal of Molecular Sciences, 2014)
Ends that are not written are not given here.

Molecular target: T1, dipeptidyl-peptidase IV (DPP-IV) (Homo sapiens, UniProt P27487)
T1 construct: purchased Creative BioMart (Shirley, NY, USA); host or cells: HEK293 human cells
Assay: DPP-IV inhibition assay on SPOT-synthesized peptides (cleaved from cellulose membrane)
Format: biochemical
Conditions: peptides cleaved from cellulose membrane, concentration not known (semi-quantitative); averages of four determinations from two experiments
Description: Recombinant human dipeptidyl-peptidase IV (DPP-IV, EC 3.4.14.5, expressed in HEK293 human cells, >95% purity, activity >5500 pmoles Gly–Pro–7-amido-4-methylcoumarin/min/µg) was purchased from Creative BioMart (Shirley, NY, USA) while polyclonal goat DPP-IV antibody and polyclonal donkey anti-goat secondary antibody conjugated to horseradish peroxidase were obtained from R&D Systems (Minneapolis, MN, USA). Pierce™ ECL western blotting substrate and protein-free (TBS) blocking buffer were from Thermo Scientific (Rockford, IL, USA). Gly–Pro–p-nitroanilide (H-Gly–Pro–p-NA∙HCl) was purchased from Bachem Americas (Torrance, CA, USA). Synthesized peptides (≥95% purity) were prepared and purified by GL Biochem (Shanghai) Ltd. (Shanghai, China).
Peptide arrays of deca-peptides spanning the entire α-lactalbumin sequence with a frame shift of one amino acid between successive sequences were prepared by Kinexus Bioinformatics Corporation (Vancouver, BC, Canada). The peptides were synthesized from the C-terminal amino acid using the SPOT technology consisting of the stepwise coupling of the Fmoc-protected amino acids and cleavage of the side chain protection groups. The α-lactalbumin-derived peptides were synthesized on trioxatridecanediamine (TOTD) and β-alanine-modified Whatman 540 cellulose membranes for the binding and inhibition assays, respectively. For the inhibition assay, the peptides were synthesized in large dots (5–7 mm in diameter) and the quality of the synthesis was verified by HPLC analysis of quality controls spots included on the membranes.
In order to determine the effect of the SPOT-synthesized peptides on the activity of the DPP-IV enzyme, the peptides were first cleaved from the cellulose support by incubating the membranes with gaseous ammonia overnight. Peptide spots (5 mm in diameter) were then punched out using a single-hole punch and transferred into microcentrifuge tubes containing 150 µL of acetonitrile (50% in 100 mM Tris–HCl buffer pH 8.0). The peptide solution (50 µL) was pipetted into a 96-well microplate with 35 µL of the chromogenic substrate Gly–Pro–p-NA (0.29 mM in 100 mM Tris–HCl buffer pH 8.0). The mixture was pre-incubated for 10 min at 37 °C, whereupon 15 µL of DPP-IV (25 mU/mL) was added and the enzymatic reaction was carried out for 30 min at 37 °C. The reaction was then terminated by addition of 100 µL of 1 M sodium acetate buffer pH 4.0 and the absorbance of the released p-nitroaniline was measured at 405 nm using a Tecan Infinite® 200 Pro microplate reader (ESBE Scientific, Markham, ON, Canada). Positive and negative controls (DPP-IV activity with no inhibitor and no DPP-IV activity, respectively) were prepared using punched peptide-free cellulose spots from the same membrane used for peptide synthesis, and adding Tris-HCl buffer in place of the sample and in place of the sample and enzyme solution, respectively.
One unit of DPP-IV was defined as the concentration of enzyme that releases 1 µmol per min of p-nitroaniline from Gly–Pro–p-NA (100 µM) at 37 °C and pH 8.0.

T1 sequence (P27487 whole entry): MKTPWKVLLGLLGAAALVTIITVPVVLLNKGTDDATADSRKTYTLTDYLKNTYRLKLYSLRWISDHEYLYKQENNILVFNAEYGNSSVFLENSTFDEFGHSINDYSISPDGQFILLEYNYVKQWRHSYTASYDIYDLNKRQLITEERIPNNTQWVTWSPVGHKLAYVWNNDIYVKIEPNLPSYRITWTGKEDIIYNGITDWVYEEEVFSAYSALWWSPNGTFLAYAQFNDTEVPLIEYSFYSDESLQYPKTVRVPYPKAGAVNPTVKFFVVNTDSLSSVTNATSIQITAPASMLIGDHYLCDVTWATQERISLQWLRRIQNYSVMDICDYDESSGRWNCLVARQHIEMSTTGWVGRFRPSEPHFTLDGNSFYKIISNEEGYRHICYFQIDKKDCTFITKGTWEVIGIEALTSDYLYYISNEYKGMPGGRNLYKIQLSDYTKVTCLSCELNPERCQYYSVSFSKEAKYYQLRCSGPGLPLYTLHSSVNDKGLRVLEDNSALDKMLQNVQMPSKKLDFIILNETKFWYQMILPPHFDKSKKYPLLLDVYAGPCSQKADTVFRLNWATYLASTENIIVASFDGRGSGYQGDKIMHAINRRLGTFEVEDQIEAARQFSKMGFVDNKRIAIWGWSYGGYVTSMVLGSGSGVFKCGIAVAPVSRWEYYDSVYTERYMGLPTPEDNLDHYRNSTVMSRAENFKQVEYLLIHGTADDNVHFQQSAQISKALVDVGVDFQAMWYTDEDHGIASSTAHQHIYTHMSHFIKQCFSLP

| Substance | Percent inhibition of DPP-IV activity, SPOT-synthesized deca-peptides |
| --- | --- |
| G4: α-lactalbumin-derived deca-peptide, residues 70–79 (Table S1) (SNICNISCDK; UniProt P00711 89-98, looked up, fragment) | 19% |
| G5: α-lactalbumin-derived deca-peptide, residues 71–80 (Table S1) (NICNISCDKF; UniProt P00711 90-99, looked up, fragment) | 25% |
| G7: α-lactalbumin-derived deca-peptide, residues 73–82 (Table S1) (CNISCDKFLD; UniProt P00711 92-101, looked up, fragment) | 17% |
| G8: α-lactalbumin-derived deca-peptide, residues 74–83 (Table S1) (NISCDKFLDD; UniProt P00711 93-102, looked up, fragment) | 19% |
| G9: α-lactalbumin-derived deca-peptide, residues 75–84 (Table S1) (ISCDKFLDDD; UniProt P00711 94-103, looked up, fragment) | 18% |
| GLFQINNKIW [E7] | 9% |
| H1: α-lactalbumin-derived deca-peptide, residues 78–87 (Table S1) (DKFLDDDLTD; UniProt P00711 97-106, looked up, fragment) | 19% |
| H2: α-lactalbumin-derived deca-peptide, residues 79–88 (Table S1) (KFLDDDLTDD; UniProt P00711 98-107, looked up, fragment) | 18% |
| H3: α-lactalbumin-derived deca-peptide, residues 80–89 (Table S1) (FLDDDLTDDI; UniProt P00711 99-108, looked up, fragment) | 18% |
| H4: α-lactalbumin-derived deca-peptide, residues 81–90 (Table S1) (LDDDLTDDIM; UniProt P00711 100-109, looked up, fragment) | 21% |
| H5: α-lactalbumin-derived deca-peptide, residues 82–91 (Table S1) (DDDITDDIMC; UniProt P00709 101-110, looked up, fragment) | 14% |
| H6: α-lactalbumin-derived deca-peptide, residues 83–92 (Table S1) (DDLTDDIMCV; UniProt P00711 102-111, looked up, fragment) | 19% |
| H7: α-lactalbumin-derived deca-peptide, residues 84–93 (Table S1) (DLTDDIMCVK; UniProt P00711 103-112, looked up, fragment) | 25% |
| H8: α-lactalbumin-derived deca-peptide, residues 85–94 (Table S1) (LTDDIMCVKK; UniProt P00711 104-113, looked up, fragment) | 20% |
| H9: α-lactalbumin-derived deca-peptide, residues 86–95 (Table S1) (TDDIMCAKKI; UniProt P00709 105-114, looked up, fragment) | 20% |
| H10: α-lactalbumin-derived deca-peptide, residues 87–96 (Table S1) (DDIMCVKKIL; UniProt P00711 106-115, looked up, fragment) | 20% |
| H11: α-lactalbumin-derived deca-peptide, residues 88–97 (Table S1) (DIMCVKKILD; UniProt P00711 107-116, looked up, fragment) | 15% |
| HAEGTFTSDY [K10, HAEGTFTSDY, reference compound] | 19% |
| HKALCSEKLD [J8] | 20% |
| HTSGYDTQAI [C10] | 11% |
| I1: α-lactalbumin-derived deca-peptide, residues 89–98 (Table S1) (IMCVKKILDK; UniProt P00711 108-117, looked up, fragment) | 17% |

| Substance | Percent inhibition of DPP-IV activity, SPOT-synthesized deca-peptides |
| --- | --- |
| I2: α-lactalbumin-derived deca-peptide, residues 90–99 (Table S1) (MCAKKILDIK; UniProt P00709 109-118, looked up, fragment) | 19% |
| I3: α-lactalbumin-derived deca-peptide, residues 91–100 (Table S1) (CVKKILDKVG; UniProt P00711 110-119, looked up, fragment) | 26% |
| I6: α-lactalbumin-derived deca-peptide, residues 94–103 (Table S1) (KILDKVGINY; UniProt P00711 113-122, looked up, fragment) | 20% |
| I7: α-lactalbumin-derived deca-peptide, residues 95–104 (Table S1) (ILDKVGINYW; UniProt P00711 114-123, looked up, fragment) | 19% |
| I8: α-lactalbumin-derived deca-peptide, residues 96–105 (Table S1) (LDKVGINYWL; UniProt P00711 115-124, looked up, fragment) | 16% |
| I9: α-lactalbumin-derived deca-peptide, residues 97–106 (Table S1) (DKVGINYWLA; UniProt P00711 116-125, looked up, fragment) | 22% |
| I10: α-lactalbumin-derived deca-peptide, residues 98–107 (Table S1) (KVGINYWLAH; UniProt P00711 117-126, looked up, fragment) | 22% |
| I11: α-lactalbumin-derived deca-peptide, residues 99–108 (Table S1) (VGINYWLAHK; UniProt P00711 118-127, looked up, fragment) | 20% |
| INNKIWCKDD [E11, INNKIWCKDD] | 21% |
| IVQNNDSTEY [D8] | 15% |
| IWCKDDQNPH [F4] | 21% |
| J1: α-lactalbumin-derived deca-peptide, residues 100–109 (Table S1) (GIDYWLAHKA; UniProt P00709 119-128, looked up, fragment) | 25% |
| J2: α-lactalbumin-derived deca-peptide, residues 101–110 (Table S1) (IDYWLAHKAL; UniProt P00709 120-129, looked up, fragment) | 18% |
| J3: α-lactalbumin-derived deca-peptide, residues 102–111 (Table S1) (DYWLAHKALC; UniProt P00709 121-130, looked up, fragment) | 15% |
| J4: α-lactalbumin-derived deca-peptide, residues 103–112 (Table S1) (YWLAHKALCS; UniProt P00711 122-131, looked up, fragment) | 20% |
| J5: α-lactalbumin-derived deca-peptide, residues 104–113 (Table S1) (WLAHKALCSE; UniProt P00711 123-132, looked up, fragment) | 16% |
| KALCSEKLDQ [J9] | 24% |
| KDDQNPHSSN [F7] | 16% |
| KIWCKDDQNP [F3] | 19% |
| KLDQWLCEKL [K4] | 19% |
| LFQINNKIWC [E8] | 13% |
